Consider six molecules from publication PMC9599461, “Stereoselectivity in the Membrane Transport of Phenylethylamine Derivatives by Human Monoamine Transporters and Organic Cation Transporters 1, 2, and 3” (Biomolecules, 2022).

One data set relates to Alpha-1 adrenoreceptor. The settings on record: cited from earlier work.
For data set [1], the system named is OCT2 A270S variant. Nature of the data set: in vitro. The settings on record: human, Stereoselectivity OCT2_A270S, 100 μM racemic substance, two minutes; uptake ratio of enantiomers, given as for (R).
The next data set addresses T1, OCT2 (wild-type) (Homo sapiens, UniProt O15244).
T1 sequence (O15244 1-555 S270A): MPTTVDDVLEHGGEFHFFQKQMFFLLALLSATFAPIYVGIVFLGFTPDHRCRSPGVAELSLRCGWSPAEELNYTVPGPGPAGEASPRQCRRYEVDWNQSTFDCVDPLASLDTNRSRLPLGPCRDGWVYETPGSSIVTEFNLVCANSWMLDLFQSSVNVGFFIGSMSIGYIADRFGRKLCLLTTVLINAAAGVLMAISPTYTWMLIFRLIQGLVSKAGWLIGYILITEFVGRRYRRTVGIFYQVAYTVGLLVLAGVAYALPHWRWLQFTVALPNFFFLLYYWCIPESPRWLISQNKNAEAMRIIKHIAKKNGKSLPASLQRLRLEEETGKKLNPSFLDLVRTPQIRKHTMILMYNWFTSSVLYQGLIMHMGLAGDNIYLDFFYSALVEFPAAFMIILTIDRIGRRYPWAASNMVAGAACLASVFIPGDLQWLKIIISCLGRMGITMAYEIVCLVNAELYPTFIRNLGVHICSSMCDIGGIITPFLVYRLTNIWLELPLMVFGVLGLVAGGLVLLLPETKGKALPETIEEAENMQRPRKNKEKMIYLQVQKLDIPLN
Nature of the data set: Stereoselective uptake into OCT2 (wild-type)-overexpressing HEK293 cells. The settings on record: human, 100 μM racemic substance, two minutes, uptake ratio of enantiomers, given as for (R).

For a further data set, the target named is T2, OCT2 (Homo sapiens, UniProt O15244, S270A).
T2 sequence (O15244 1-555 S270A): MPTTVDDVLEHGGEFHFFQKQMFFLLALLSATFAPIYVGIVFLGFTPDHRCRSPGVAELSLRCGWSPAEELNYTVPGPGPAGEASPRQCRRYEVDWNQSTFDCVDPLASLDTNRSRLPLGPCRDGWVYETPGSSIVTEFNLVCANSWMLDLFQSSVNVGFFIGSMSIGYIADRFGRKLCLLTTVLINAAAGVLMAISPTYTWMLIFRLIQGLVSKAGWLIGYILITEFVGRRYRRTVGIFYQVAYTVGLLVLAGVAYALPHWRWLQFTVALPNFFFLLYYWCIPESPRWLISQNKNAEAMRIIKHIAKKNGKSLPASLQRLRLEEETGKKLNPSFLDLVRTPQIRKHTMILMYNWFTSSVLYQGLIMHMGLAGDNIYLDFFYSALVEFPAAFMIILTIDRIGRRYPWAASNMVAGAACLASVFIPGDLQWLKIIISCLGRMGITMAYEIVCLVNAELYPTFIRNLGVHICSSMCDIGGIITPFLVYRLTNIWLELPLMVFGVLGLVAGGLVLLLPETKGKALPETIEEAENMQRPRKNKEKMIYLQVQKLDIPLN
The description is as above. The settings on record: OCT2; ratio between enantiomers, given as for (R) or for 1.

A further data set concerns Alpha-2 adrenoreceptor. Also noted: method as in PMID 2833972. The note with it: cited from earlier work.
The target of the next data set is SERT (Homo sapiens, UniProt P31645). Nature of the data set: Stereoselective uptake into SERT-overexpressing HEK293 cells.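 Also: uptake into HEK293 cells stably expressing human SERT over 2 min, enantiomers measured in cell lysate by chiral HPLC-MS/MS, normalized to total protein.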 The settings on record: SERT; ratio between enantiomers, given as for (R) or for 1.
Data set [2] concerns OCT2 A270S variant. Nature of the data set: Stereoselective uptake into OCT2 A270S variant-overexpressing HEK293 cells.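 Also: uptake into HEK293 cells stably overexpressing human OCT2 variants, intracellular enantiomers quantified by chiral HPLC-MS/MS and normalized to total protein.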 The note with it: human, HEK293 cells stably overexpressing human OCT2 A270S variant.
Substrate in data set [3]: CNCC(O)c1ccc(O)c(OC)c1
Nature of the data set: cells, lysate or membranes. The settings on record: racemic substrate, two minutes, net uptake minus empty vector control, 37.0 °C.

Substrate in data set [4]: CNC[C@@H](O)c1ccc(O)cc1
Nature of the data set: cells, lysate or membranes. The settings on record: racemic substrate, two minutes, net uptake minus empty vector control, 37.0 °C.

Substrate in data set [5]: CNC[C@@H](O)c1cccc(O)c1
Nature of the data set: cells, lysate or membranes. The settings on record: racemic substrate, two minutes, net uptake minus empty vector control, 37.0 °C.

Substrate in data set [6]: CNC[C@H](O)c1cccc(O)c1
Nature of the data set: cells, lysate or membranes. The settings on record: racemic substrate, two minutes, net uptake minus empty vector control, 37.0 °C.

Substrate in data set [7]: COc1cc(C(O)CN)ccc1O
Nature of the data set: cells, lysate or membranes. The note with it: racemic substrate, two minutes, net uptake minus empty vector control, 37.0 °C.

Substrate in data set [8]: NC[C@@H](O)c1ccc(O)cc1
Nature of the data set: cells, lysate or membranes. The note with it: racemic substrate, two minutes, net uptake minus empty vector control, 37.0 °C.

Substrate in data set [9]: NC[C@H](O)c1ccc(O)cc1
Nature of the data set: cells, lysate or membranes. The note with it: racemic substrate, two minutes, net uptake minus empty vector control, 37.0 °C.

Substrate in data set [10]: [H][C@](O)(CNC)c1ccc(O)cc1
Nature of the data set: cells, lysate or membranes. The settings on record: racemic substrate, two minutes, net uptake minus empty vector control, 37.0 °C.

Substrate in data set [11]: NCC(O)c1cccc(O)c1
Nature of the data set: cells, lysate or membranes. The note with it: racemic substrate, two minutes, net uptake minus empty vector control, 37.0 °C.

Setting [12] is: other: HEK293 cells overexpressing human OCT1.
Setting [13] is: other: HEK293 cells overexpressing human OCT3.
[14] abbreviates: other: HEK293 cells overexpressing human DAT.

Values joined by “and” are separate entries in the source; they are usually repeats but may differ in a detail not shown here. Equal values may be shown once.

`CNCC(O)c1ccc(O)cc1` (stereo not drawn) [Synephrine]: the “Enantiomeric Activity Ratio (R/S) in Receptor Binding Alpha-1” value in the data set with Alpha-1 adrenoreceptor was 75. Further, the selectivity ratio at 2 min, 100 μM is 1 in the data set with OCT2 A270S variant [1] and 1.17 on OCT2 (wild-type) (Stereoselectivity OCT2_WT).

On to `NC[C@H](O)c1ccc(O)c(O)c1` [Norepinephrine], for which, in the data set on Alpha-1 adrenoreceptor, the “Enantiomeric Activity Ratio (R/S) in Receptor Binding Alpha-1” value is 33. The selectivity ratio at 2 min, 100 μM in the data set on OCT2 A270S variant [1] was found to be 2.06; on OCT2 (wild-type) (Stereoselectivity OCT2_WT) it was 2.05. For the same molecule, the “Stereoselectivity Vmax” value at OCT2 is recorded as “approximately two-fold”.

Turning to `NCC(O)c1ccc(O)cc1` (stereo not drawn) [Octopamine], the “Enantiomeric Activity Ratio (R/S) in Receptor Binding Alpha-1” value in the data set with Alpha-1 adrenoreceptor is 5. Further, in the data set on Alpha-2 adrenoreceptor, the “Enantiomeric Activity Ratio (R/S) in Receptor Binding Alpha-2” value is reported as 3. Besides, the “Stereoselectivity Vmax” value at SERT is recorded as 2.4 fold. For the same molecule, the selectivity ratio at 2 min, 100 μM at OCT2 (wild-type) (HEK293 cells stably overexpressing human wild-type OCT2, Stereoselectivity OCT2_WT) is 1.74; with OCT2 A270S variant [2] it was 1.69.

B1: OCT1 (Homo sapiens) (protein)
chain: MPTVDDILEQVGESGWFQKQAFLILCLLSAAFAPICVGIVFLGFTPDHHCQSPGVAELSQRCGWSPAEELNYTVPGLGPAGEAFLGQCRRYEVDWNQSALSCVDPLASLATNRSHLPLGPCQDGWVYDTPGSSIVTEFNLVCADSWKLDLFQSCLNAGFLFGSLGVGYFADRFGRKLCLLGTVLVNAVSGVLMAFSPNYMSMLLFRLLQGLVSKGNWMAGYTLITEFVGSGSRRTVAIMYQMAFTVGLVALTGLAYALPHWRWLQLAVSLPTFLFLLYYWCVPESPRWLLSQKRNTEAIKIMDHIAQKNGKLPPADLKMLSLEEDVTEKLSPSFADLFRTPRLRKRTFILMYLWFTDSVLYQGLILHMGATSGNLYLDFLYSALVEIPGAFIALITIDRVGRIYPMAMSNLLAGAACLVMIFISPDLHWLNIIIMCVGRMGITIAIQMICLVNAELYPTFVRNLGVMVCSSLCDIGGIITPFIVFRLREVWQALPLILFAVLGLLAAGVTLLLPETKGVALPETMKDAENLGRKAKPKENTIYLKVQTSEPSGT
Regarding B1, the Km – broadly, the concentration of substrate that gives half-maximal velocity – in data set [3] (setting [12]) was 134 µM and 146 µM; in data set [4] (setting [12]), 111 µM; in [5] (setting [12]), 178 µM; in [6] (setting [12]), 175 µM; in data set [7] (setting [12]), 806 µM and 1279 µM; in [8] (setting [12]), 281 µM. Further, the Km in data set [9] (setting [12]) is listed as 291 µM; in data set [10] (setting [12]), 86.7 µM. For the same molecule, the Vmax in [4] (setting [12]) is 1348 pmol × mg Protein^−1 × min^−1; in data set [5] (setting [12]), 1578 pmol × mg Protein^−1 × min^−1; in data set [6] (setting [12]), 1710 pmol × mg Protein^−1 × min^−1; in data set [7] (setting [12]) it was 2137 pmol × mg Protein^−1 × min^−1 and 3145 pmol × mg Protein^−1 × min^−1; in [8] (setting [12]), 1211 pmol × mg Protein^−1 × min^−1; in data set [9] (setting [12]) it was 1318 pmol × mg Protein^−1 × min^−1. For the same molecule, the Vmax in data set [10] (setting [12]) was 1817 pmol × mg Protein^−1 × min^−1.

B2: OCT3 (Homo sapiens) (protein)
chain: MPSFDEALQRVGEFGRFQRRVFLLLCLTGVTFAFLFVGVVFLGTQPDHYWCRGPSAAALAERCGWSPEEEWNRTAPASRGPEPPERRGRCQRYLLEAANDSASATSALSCADPLAAFPNRSAPLVPCRGGWRYAQAHSTIVSEFDLVCVNAWMLDLTQAILNLGFLTGAFTLGYAADRYGRIVIYLLSCLGVGVTGVVVAFAPNFPVFVIFRFLQGVFGKGTWMTCYVIVTEIVGSKQRRIVGIVIQMFFTLGIIILPGIAYFIPNWQGIQLAITLPSFLFLLYYWVVPESPRWLITRKKGDKALQILRRIAKCNGKYLSSNYSEITVTDEEVSNPSFLDLVRTPQMRKCTLILMFAWFTSAVVYQGLVMRLGIIGGNLYIDFFISGVVELPGALLILLTIERLGRRLPFAASNIVAGVACLVTAFLPEGIAWLRTTVATLGRLGITMAFEIVYLVNSELYPTTLRNFGVSLCSGLCDFGGIIAPFLLFRLAAVWLELPLIIFGILASICGGLVMLLPETKGIALPETVDDVEKLGSPHSCKCGRNKKTPVSRSHL
With B2, the Km is 29.0 µM and 24.4 µM in data set [3] (setting [13]); 75.3 µM in data set [4] (setting [13]); 205 µM in [5] (setting [13]); 244 µM in data set [6] (setting [13]); 75.9 µM and 62.4 µM in data set [7] (setting [13]); 582 µM and 498 µM in data set [11] (setting [13]). Moreover, the Km in [8] (setting [13]) came out at 20.1 µM; in data set [9] (setting [13]), 25.1 µM; in data set [10] (setting [13]) it was 83.5 µM. For the same molecule, the Vmax was 752 pmol × mg Protein^−1 × min^−1 and 635 pmol × mg Protein^−1 × min^−1 in data set [3] (setting [13]); 2090 pmol × mg Protein^−1 × min^−1 in data set [4] (setting [13]); 866 pmol × mg Protein^−1 × min^−1 in [5] (setting [13]); 2885 pmol × mg Protein^−1 × min^−1 in data set [6] (setting [13]); 1473 pmol × mg Protein^−1 × min^−1 and 1352 pmol × mg Protein^−1 × min^−1 in data set [7] (setting [13]); 1072 pmol × mg Protein^−1 × min^−1 in data set [8] (setting [13]). Besides, the Vmax is on record as 972 pmol × mg Protein^−1 × min^−1 in data set [9] (setting [13]) and 2193 pmol × mg Protein^−1 × min^−1 in [10] (setting [13]).

B3: DAT (Homo sapiens) (protein)
chain: MSKSKCSVGLMSSVVAPAKEPNAVGPKEVELILVKEQNGVQLTSSTLTNPRQSPVEAQDRETWGKKIDFLLSVIGFAVDLANVWRFPYLCYKNGGGAFLVPYLLFMVIAGMPLFYMELALGQFNREGAAGVWKICPILKGVGFTVILISLYVGFFYNVIIAWALHYLFSSFTTELPWIHCNNSWNSPNCSDAHPGDSSGDSSGLNDTFGTTPAAEYFERGVLHLHQSHGIDDLGPPRWQLTACLVLVIVLLYFSLWKGVKTSGKVVWITATMPYVVLTALLLRGVTLPGAIDGIRAYLSVDFYRLCEASVWIDAATQVCFSLGVGFGVLIAFSSYNKFTNNCYRDAIVTTSINSLTSFSSGFVVFSFLGYMAQKHSVPIGDVAKDGPGLIFIIYPEAIATLPLSSAWAVVFFIMLLTLGIDSAMGGMESVITGLIDEFQLLHRHRELFTLFIVLATFLLSLFCVTNGGIYVFTLLDHFAAGTSILFGVLIEAIGVAWFYGVGQFSDDIQQMTGQRPSLYWRLCWKLVSPCFLLFVVVVSIVTFRPPHYGAYIFPDWANALGWVIATSSMAMVPIYAAYKFCSLPGSFREKLAYAIAPEKDRELVDRGEVRQFTLRHWLKV
For the molecule B3, the Km in data set [4] (setting [14]) is 44.7 µM; in data set [11] (setting [14]) it was 15.6 µM and 18.6 µM; in [8] (setting [14]) it was 19.6 µM; in data set [9] (setting [14]), 20.5 µM; in [10] (setting [14]) it was 36.8 µM. Further, the Vmax in data set [4] (setting [14]) is 463 pmol × mg Protein^−1 × min^−1; in data set [11] (setting [14]), 2003 pmol × mg Protein^−1 × min^−1 and 3103 pmol × mg Protein^−1 × min^−1; in data set [8] (setting [14]), 1959 pmol × mg Protein^−1 × min^−1; in [9] (setting [14]) it was 2054 pmol × mg Protein^−1 × min^−1; in [10] (setting [14]) it was 849 pmol × mg Protein^−1 × min^−1.
